# Experimental data reported in PMC3090699 (Amino acids, 2010).
# B1: methionine adenosyltransferase from Methanococcus jannaschii, wild type (enzyme, UniProt Q58605 1-406, looked up)
# chain: MRNIIVKKLDVEPIEERPTEIVERKGLGHPDSICDGIAESVSRALCKMYMEKFGTILHHNTDQVELVGGHAYPKFGGGVMVSPIYILLSGRATMEILDKEKNEVIKLPVGTTAVKAAKEYLKKVLRNVDVDKDVIIDCRIGQGSMDLVDVFERQKNEVPLANDTSFGVGYAPLSTTERLVLETERFLNSDELKNEIPAVGEDIKVMGLREGKKITLTIAMAVVDRYVKNIEEYKEVIEKVRKKVEDLAKKIADGYEVEIHINTADDYERESVYLTVTGTSAEMGDDGSVGRGNRVNGLITPFRPMSMEAASGKNPVNHVGKIYNILANLIANDIAKLEGVKECYVRILSQIGKPINEPKALDIEIITEDSYDIKDIEPKAKEIANKWLDNIMEVQKMIVEGKVTTF
# Target: the molecule itself
# Experiment: SEC
protein,measurement,value
B1,stoichiometry N,2
